US20060045884A1, “Vaccines for autoimmune and infectious disease” (Board of Regents, priority 2004, published 2006)

Target: HLA-A2.1 (HLA-A*0201) with β2-microglobulin on the surface of T2 cells (human)

KLGEFYNQMM (modifications not checked) [Influenza B nucleoprotein peptide (aa 85-94), P04665 85-94]
Median Channel of Fluorescence of HLA-A2 Expression on T2 (median channel of fluorescence): 194
